# In patent US20140287419A1, “Compositions Having Dicamba Decarboxylase Activity and Methods of Use” (priority 2013, published 2014):
# Changes are numbered by the printed parent chain.
# B1: SEQ ID NO:57: amidohydrolase, Collimonas fungivorans Ter331 (protein)
# chain: MAKLICVEEHVLDPAVGAATQSLVRAEAPYLPDWGSRVLDGRHVADRSRPHVIAPSESARKALEMGEPRLADMDAASIDMQVLSYGGFPQLLPAAQAIDLNRAANDKLALAAQAHPARFAGFATLPWQAPEAAARELERAVKQLGLKGALINGRPGDTFLDDARYAPILAAFDELKVPLYVHPGLPLPAVQAPYYGGFERELSARLAMFAWGWHNEAGIQVVRMLLAGVFDRHPRLQLISGHWGEMVPFFLQRLEDSIPQEASGLQRPIVQTYREHVYISPSGMFTLPHFQFIHALMGAQRILYSIDYPYQSLDGARAFIERLPISDTDKALIAHRNAERLLHL
# modifications: Collimonas fungivorans
# B2: SEQ ID NO:2: o-pyrocatechuate decarboxylase, Serratia sp. AS12 (protein, listed as Serratia sp.)
# chain: MAKIICLEEHTLDKALVMASMPAALEQAPFLSDWGKTVTDGNLPDRSRPQIEKNDLINIKGADIGRGRLDDMDVAGITMQVLSVGGFPHLISAAEGVDLNRAANDRLADAVNAHPDRFAAFATLPWAQPDSAEKELERAVKELGFKGALLNGRPSTHFLDHPDYDGLLARFNALGVPLYLHPGLPVRSVQQAYYGGFSDEVTARLSMFGWGWHHEAGIHLLRLILSGAFDKYPNLQVISGHWGEMLPFWLQRLDDSLPQAATGLRRTIAQTFKEQVYVTPSGMLTLPHFQFIYALLGAERIIFSVDYPYQTLDGVKAFIQSLPVPEEAKEAIAFRNAERLLGLTS
# B3: SEQ ID NO:55: o-pyrocatechuate decarboxylase, Serratia sp. AS12 (protein, listed as Serratia sp.)
# chain: B2 chain
# B4: SEQ ID NO:5: possible o-pyrocatechuate decarboxylase, Staphylococcus aureus subsp. aureus MN8 (protein, listed as Staphylococcus aureus)
# chain: MAQNNMEANQMKSITFEEHYVIEDIQKETMNAISADPKGVPMKVMLEGLEKKTGFTNADELSHHDERIQFMNNQDVQIQVLSYGNGSPSNLVGQKAIELCQKANDQLANYIAQYPNRFVGFATLPINEPEAAAREFERCINDLGFKGALIMGRAQDGFLDQDKYDIIFKTAENLGVPIYLHPAPVNSDIYQSYYKGNYPEVTAATFACFGYGWHIDVGIHAIHLVLSGIFDRYPKLNMIIGHWGEFIPFFLERMDEALFAEHLNHPVSYYFKNNFYITPSGMLTKPQFDLVKKEAGIDRILYAADYPYIEPEKLGVFLDELGLTDEEKEKISYTNGAKLLGLSSNN
# B5: SEQ ID NO:16: possible o-pyrocatechuate decarboxylase, Staphylococcus aureus subsp. aureus TCH60 (protein, listed as Staphylococcus aureus)
# chain: B4 chain with A131T
# B6: SEQ ID NO:92: amidohydrolase 2, Chitinophaga pinensis DSM 2588 (protein, listed as Chitinophaga pinensis)
# chain: MARIVTLEEHVSFPEMTALLPEEILKNRKQSGAALQMQEKLADITGERLTSMKAAGISMQVLSVENTDVYLLPDSLAPAFAAKYNDLLADKISSHSDAFAAFAMLPMTVPEAAADELERAVKTHGFCGAMIKGLINGVFLDAPKFAPVFACAEKLGVPLYIHPGIPPKEVIDAYYSNVGDTKGPNEAIACYGWGWHSETAIHILRLLAAGIFDKYPQLNIIIGHMGEMLPMMWERSNRVFQPGNNGKNQRTLIETFRKQLYITTSGIFTQPPLQIAIDTIGIDNILFSIDYPFSSNQMGIDFLTKAALPAEQLAKMAHGNADRILKF
# B7: SEQ ID NO:56: hypothetical protein EAE_19025, Enterobacter aerogenes KCTC 2190 (protein)
# chain: MAKIICLEEHYLDSELGRACMPVALEQAPFLGDWGKTVADGHNPDRSRPQIEKNALINAKGADLGSRRLRDMDEAGITLQILSVGGFPQLAPEDEAVTLNTAANDRLAEAVRNHPDRFAAFATLPWAQPKDAENELVRAVEKLGFKGALLNGRPSSCFLDHPDYDSLLSRFNKLNVPLYLHPGLPLKSVQQAYFTGFSAEVNARLSMFGWGWHHEAGIHLLRLMLSGAFDKYPNMQVISGHWGEMLPFWLQRLDDSLPLAATGLSRTLTRTFQEHVYVTPSGMLTLPHFKFIYELMGAERILFSVDYPYQTLDGVKTFIDSLPVNKAEKEAIAFRNAERLLGITA
# modifications: Enterobacter aerogenes
# B8: SEQ ID NO:58: amidohydrolase 2, Mycobacterium colombiense CECT 3035 (protein)
# chain: MARVIALEEHYATTEFLRGPGTWLASRPGIVEPAGDLGDGRIAAMDQAGVDLAVLSLAAPGVEQLDPDDAVRLARDCNDQLAAAVRRYPDRLAGFATVPTSAPDRAADELERAVRGLGFPGAVINGHSRGRYLDDPFFEPVLARAAELQAPIYLHPTIPPAGVIESSYAGFAEPVTFALATVGWGWHINTATHALRMILGGVFDRHPSLQMIIGHMGEATSFMLPRFDATLKPELTGLNHPVSSYLRENFHYTFANFNDHATYANLVAQVGIERVAFSADYPFGSMVDARAFLDGLPLSDDERAAISHRNAEKLLGL
# modifications: Mycobacterium colombiense
# B9: SEQ ID NO:89: amidohydrolase, Erwinia billingiae Eb661 (protein, listed as Erwinia billingiae)
# chain: MATNRRDFLKNATAVMAGSTVFAGSSHFASAAAVEPAAVQPPRRIIALEEHFMLPEFVGYLHETQQNLRNGLVDKVVTPLSDFGKGRLEIMDKNGVDFAVLSLSGPGVQAEPDRVKAVRLARYANDKLATEMQKNPRRYGGFAHLAMQDPLAAANELERCVKQLHMQGGMINGETDGLYLDDRRYDVFWERVEALNVPIYIHPGNPPDYPHMFAGHPEMWGPVWSWAVETCSHALRLIFSGTFDRYPGARVILGHMGETLPIQLWRLDSRYQIANQTFAIKHPPSWYAKKNITITTSGVCNDAALRCALDSMGSENVMFSIDYPFESTEIAVNWLKTANITEQERNAVAWGNATSILRLGA
# B10: SEQ ID NO:88: o-pyrocatechuate decarboxylase, Starkeya novella DSM 506 (protein, listed as Starkeya novella)
# chain: MARKIALEEHFTTPELAGKYVARPTQSDALFADIERRLADFDELRLEMMDRAEIDLMVLSVTTPGVQGVRDTGEAIRLARGANDFLAREVQKRPSRYAGFAHLAMQDAEAAATELERAVRELGFRGALINGQTNGHYLDEDQYAPFWERVQELDVPVYLHPGNMADSPAMFAHRPELGGPIWAWTAETAAHALRLVFGGTFTRFPGAKVILGHMGETLPFLLWRLDSRREFDLGEKLAPDALPSAIIKRNIAVTTSGVCDPAPLVAALQALSDDNVMFSVDYPYEDPQLASKFIETAPIGEETRAKVCHGNAERLLGL
# B11: SEQ ID NO:81: 2-amino-3-carboxymuconate-6-semialdehyde decarboxylase, Verticillium dahliae VdLs.17 (protein, listed as Verticillium dahliae)
# chain: MAASTKPKVVDIHTHMYPPSYIDILTSRTAIPVVRTFPQAADPRLILLDAEQQALDAALQDPTAKPPGRPLTSHYASLDQKIHFMDTHSIDISVVSLANPWLDFIEPKEAAATARSVNDEFEAMCASQPGRLFFFAALPLTAPLPALLEAVRHVAELEHCRGVILGTSGLGSGLDDPELVPVLEAVAAAALTVFLHPHYGLPNDVWGPRASAEYGHVLPLALGFPMETTIAVARMYLAGVFDRVPALRMLLAHSGGTLPFLAGRIESCILHDGQLVAEGKVGAARRTIWDVLREQVYLDAVIYSEIGLKAAIAASGGADRLMFGTDHPFFPPLGTDEQAKKESRINAGGSRPMITGNAMINGHGGLCNHITQSDYQDVVL
# B12: SEQ ID NO:79: hypothetical protein PTT_18638, Pyrenophora teres f. teres 0-1 (protein)
# chain: MATTTTPSTLIATLESHLTPTLAFTSPTTSPTQPALHLIPPTTLTKLRNLGPGRVKDMHMLGHSRQIISHIPVAAPPQICSRFNDAIHAATMTNTAKFSVLAVLPTDGMEAAKELARCVSKYRFVGGVIGLNRGLRINGEGWEELWGLAERLRIPIMFREMWPLAFEIVDYQHHLPYSALGPILTQLHTSHTSSPLPLVRLYLSSVFDHYPSLRLVLAHPGSLPSLVPRIESLINSIPATDKPKRSFLDVWQHNIYLTTADAQDMSSLRALLEQIPVDRVLYASNYPFEERGNELMNELRESEFLTNIEWERVAWVNAETLFNLKEAGTKEARQLTTIPSSRS
# modifications: Pyrenophora teres
# B13: SEQ ID NO:87: amidohydrolase, Novosphingobium sp. PP1Y (protein, listed as Novosphingobium sp.)
# chain: MASDIATAADLQTGGRQGYLRIATEEAFATRDQIDVYLRMVRDGTADRGMTSLWGFYAQSPSARATQIIERLLDLGEQRLADMDAAGIDKAVLALTSPGVQPLLDMEEARRIAGNANDRLAERCAAHPDRFIGMTAVAPQDPQWSAREILRGATQLGFKGVQINSHTQGRYLDEPFFDPIFRALGDVGQPLYIHPGTPPDSMIGPLLDAGLDGAIYGFGVETGMHLLRLITAGIFDRYPDLQIMVGHMGEALPYWLYRLDYMHQAGIRSQRYERMRPLKRTIAGYFRSNVLVTCSGMAWEPAIQFARQVMGEDRVMYAMDYPYQYEADEVRALDVMDLSPESKRKFFQTNAERWFDL
# B14: SEQ ID NO:4: o-pyrocatechuate decarboxylase, Lactobacillus buchneri NRRL B-30929 (protein, listed as Lactobacillus buchneri)
# chain: MAKVITLEEHFSSQKLGQKMAEVLPKRPIGNVSPKMQDYMQRSLPPEAELEDVTGSRIQWMDQHQISMQILSYGNQNPQNSDPKFAVELTKLANDELAKAVAKAPDRFRAFASLPVSHPTDAAAELKRGVEELGFKGAMLVRPTSQAHPFFDDPFYLPIFEAAANLNVPVYLHPSFPDSQIIDYYYSNGPWDDKVSGILGTAGYGWHTDVGIQTVRLLLSGVFEKYPNLKLISGHWGEFASFALERMDQVMYPETNLSEPISKIYRDHVYVTPSGILTEPQLKFVKDEVGIEHLLYSIDYPYIKPENSGSFIESSPLTDEEKELFAHGNAEKLLQL
# Assay: 14C assay with IPTG-induced recombinant E. coli cells (14CO2 capture from [14C]-carboxyl-labeled dicamba)
# Settings: E. coli cell assay, 108 sequences tested
row,Molecule,decarboxylation activity of dicamba
1,B1,showed decarboxylation activity of dicamba
2,B2,showed decarboxylation activity of dicamba
3,B3,showed decarboxylation activity of dicamba
4,B4,showed decarboxylation activity of dicamba
5,B5,showed decarboxylation activity of dicamba
6,B6,showed decarboxylation activity of dicamba
7,B7,showed decarboxylation activity of dicamba
8,B8,showed decarboxylation activity of dicamba
9,B9,showed decarboxylation activity of dicamba
10,B10,showed decarboxylation activity of dicamba
11,B11,showed decarboxylation activity of dicamba
12,B12,showed decarboxylation activity of dicamba
13,B13,showed decarboxylation activity of dicamba
14,B14,showed decarboxylation activity of dicamba
